Where a chain is given by its changes, count along the chain named.
Columns and labels:
[1] = system: Pdmp-lacZ reporter fusion; assay: Liquid β-galactosidase assay, test strain AW101 (Pdmp-lacZ fusion) carrying pAW50 dmpR derivatives, exposed to phenols; assay type: cell-based, E. coli
Description: Reference will now be made in detail to the present preferred embodiments of the present invention, examples of which are shown in the accompanying drawings. Turning now to FIG. 1, the dmpR wt-N gene (See, e.g., Shingler and Moore, supra) carried on plasmid pAW50 served as the template for amplification of the dpmR sensor domain by mutagenic polymerase chain reaction (PCR). The products resulting from the mutagenic PCR were digested using Ndel and SacII and ligated back into a pAW50 plasmid fragment, from which the wild type Ndel-SacII region had been removed. […] Ligation products were electroporated into AW101 (trp::Pdmp-lacZ fusion). Transformants were initially selected for tetracycline resistance and then replicated onto plates containing X-gal and one of the test phenols. Colonies that developed more blue color than colonies containing wild type DmpR were selected for further analysis with liquid β-galactosidase assays. β-galactosidase activity is proportional to transcription of the Pdmp-lacZ reporter fusion and is, therefore, a measure of particular variant DmpR's ability to detect phenol or specific substituted phenols. This mutagenic procedure led to the identification of more than twenty DmpR derivatives with altered response to phenols. Five of these derivatives are representative of proteins which show significant promise as effective detectors of phenols listed as primary pollutants by the U.S. Environment Protection Agency.
AW101 was used as a test strain to identify and characterize changes in DmpR's sensing capacity subsequent to sensor domain mutagenesis. pAW50 derivatives were electroporated into AW101 and transformants were selected on Luria-Bertani (Difco, Detroit, Mich.) plates containing 10.5 μg/ml tetracycline. Transformants were then replica-plated onto M9 minimal medium (10) plates containing 0.2% glucose, 30 μg/ml tryptophan, 1 μg/ml thiamine, 10.5 μg/ml tetracycline, 0.25% 5-bromo-4-chloro-3-indoyl-β-D-galactoside (X-Gal), and either no inducer (NI) or 0.05 mM of a phenol derivative. Cells that formed blue colonies on plates containing a phenol derivative were subject to liquid β-galactosidase assays.
D. β-Galactosidase Assays. Overnight cultures of AW101 carrying pAW50 derivatives were diluted 1000-fold into Luria-Bertani broth containing 10.5 μg/ml tetracycline. When cells reached an OD595 nm between 0.60 and 0.90 as measured on a Lambda Bio uv/vis spectrophotometer (Perkin Elmer Corp. Analytical Instruments, Norwalk, Conn.), 500 μL samples were pelleted and immediately resuspended in 500 μL spent Luria-Bertani broth containing the appropriate phenol compound. […] Samples were pelleted and frozen at −70° C. for assay the following day.
Liquid β-galactosidase assays were performed using a modification of Miller's assay (Miller, J. H., 1972. “Experiments in Molecular Genetics,” Cold Spring Harbor Laboratory, Cold Spring Harbor, N.Y.). Cell sample pellets were thawed and resuspended in Z buffer. The optical density at 595 nm of each cell suspension was read in a microtiter plate using an automated microplate reader (BIO-TEK Instruments, Inc., Winooski, Vt.). Following the addition of 15 μL 0.1% sodium dodecyl sulfate and 25 μL HCCl3, the remaining cell suspension was vortexed for 30 s to lyse cells. The reaction was begun with the addition of 50 μL o-nitrophenyl-β-D-galactopyranoside (2.5 mg/ml) to the lysed cells. Reactions were incubated at 26° C. until stopped with the addition of 50 μL 1M Na2CO3. Color development of the reactions was read at OD415 on the microplate reader. Arbitrary units for graphing purposes were calculated as (1000×OD415)/(time)(OD595) where time is the reaction time in minutes. Equivalent cell volumes were read for both optical densities.

[2] = system: Pdmp-lacZ reporter fusion; assay: β-galactosidase detection of phenols in contaminated soil by the bacterial test strain; assay type: cell-based, E. coli
Description: FIG. 5a compares the detection of 2,4-dichlorophenol by DmpR-B9 (SEQ ID No. 1 hereof) with that for unsubstituted phenol shown in FIG. 5b in contaminated soil, unsubstituted phenol being a natural effector of wild type DmpR. Detection of chemicals in contaminated soil is often difficult because soil may bind the phenols, making them less available to the test bacteria. […] The response of DmpR-B9 to 4 parts per million (ppm) 2,4-dichlorophenol in soil is six-fold higher than that of wild type DmpR. DmpR-B9′s response to 2.5 ppm phenol is four-fold better than that of wild type.

B1: DmpR-B21: engineered DmpR derivative with mutated sensor domain (SEQ ID No. 3 and No. 9) (protein)
chain: MPIKYKPEIQHSDFKDLTNLIHFQSMEGKIWLGEQRMLLLQFSAMASFRREMVNTLGIERAKGLFLRHGYQSGLKDAELARKLRPNASEVGMFLAGPQMHSLKGLVKVRPTGLDIDKEYGRFYAEMEWIDWFEVEICQTDLGQMQDPVCWTVLGYACAYSSAFMGREIIFKEVSCRGCGG
How did the “increase in β-galactosidase activity” value ([1]; 0.0025 mM solution of 2-chlorophenol (0.3 parts per million)) turn out when B1 was run?
The value was 60 fold.

What about the “response (β-galactosidase activity)” value ([1]; 2,4-dichlorophenol at 0.025 mM (4 parts per million)) of the same molecule?
Its value is “elicits a response”.

B2: DmpR-B23: engineered DmpR derivative with mutated sensor domain (SEQ ID No. 4) (protein)
chain: B1 chain with Q10R, G112E, K117M
Which results are given for B2?
response relative to wild type DmpR ([1]; 0.5 ppm 2-chlorophenol, four-hour exposure): more than 20 fold; effect of four-hour exposure on detection signal (β-galactosidase activity units) ([1]; low concentrations of 2-chlorophenol): increases the detection signal; detection compared with wild type protein ([1]; six concentrations of 2-chlorophenol, 60 minute exposure): significantly better detectors

B3: DmpR-B17#2: engineered DmpR derivative with mutated sensor domain (SEQ ID No. 2) (protein)
chain: B1 chain with G112E
Which results are given for B3?
response to low concentrations of phenol ([1]; 2,4-dichlorophenol): responds to low concentrations; response to low concentrations of phenol ([1]; 2-nitrophenol): responds to low concentrations; response to low concentrations of phenol ([1]; 4-nitrophenol): responds to low concentrations; detection compared with wild type protein ([1]; six concentrations of 4-chloro-3-methylphenol): significantly better detectors

B4: DmpR-B9: engineered DmpR derivative with mutated sensor domain (SEQ ID No. 1) (protein)
chain: B1 chain with K4E, F42S, G112E
Which “response relative to wild type” value ([2]; 2.5 ppm phenol in soil) does the source give for B4 here?
The value was “four”.

And the “response relative to wild type DmpR” value ([2]; 4 parts per million (ppm) 2,4-dichlorophenol in soil)?
The value was “six”.

And the “capacity to detect phenols in soil compared with wild type protein” value ([2]; contaminated soil)?
The value was “significantly better”.

B5: DmpR-B31: engineered DmpR derivative with mutated sensor domain (SEQ ID No. 5) (protein)
chain: B1 chain with I58V, A61T, G112E, D146G
For B5, which “response to most substituted phenols” value ([1]; 2,4-dichlorophenol, 2,4-dimethylphenol, 4-nitrophenol (FIG. 6a)) is on record?
The value was “strong response”.

And the “uninduced (NI) value” ([1]; no inducer (no phenol))?
Its value is “relatively high”.

B6: DmpR-D12: engineered DmpR derivative with mutated sensor domain (SEQ ID No. 7) (protein)
chain: B1 chain with G112E, L141P
B6 was tested. Which “detection relative to wild type DmpR” value ([1]; 3 ppm 2,4-dichlorophenol) did it give?
The value was 10 fold.

What about the “detection relative to wild type DmpR” value ([1]; 10 ppm 4-chloro-3-methylphenol) of the same molecule?
Its value is “eight”.

B7: DmpR-D9: engineered DmpR derivative with mutated sensor domain (SEQ ID No. 6) (protein)
chain: B1 chain with G112E, D116G, K117R, F163L
B7 was tested. Which “response relative to wild type protein” value ([1]; 2-chlorophenol) did it give?
Its value is “nineteen”.
